Experimental data taken from the nanobody polyreactivity screen of Harvey et al. (2022).

Assay: yeast display, Sf9 membrane polyspecificity reagent, FACS + sequencing; frameworks hold sequencing errors
Method in brief: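 Galactose induction of a Saccharomyces cerevisiae BJ5465 synthetic nanobody display library ran 36–48 hours. The cells were then stained for 1 hour at 4 °C with 10% biotinylated, detergent-solubilized Sf9 membrane reagent, pulled down on streptavidin microbeads and FACS-sorted into low and high (top ~1%) gates on expression and reagent-binding fluorescence. Labels for polyreactivity follow the gate of origin.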

| Sequence | polyreactivity (PSR sort gate) |
| --- | --- |
| QVQLQESGGGLVQACGSLRLSCAASGYIFSHQYMGWYRQAPGKERELVASISPGATTNYADSVKGRFTISRDNAKNTVYLQMNSLKPEDTAVYYYAVQTPDVIRHFYWGQGTQVTVSS | high polyreactivity |
| QVQLQESGGGLVQADGSLRLSCAASGSIFGYYYMGWYRQAPGKDRELVATINICGITNYADSVKGRFTISRDNAKNTVYLQMNSLKPDDNAVYYCAADEYAQRDLGYWGQGTQVTVSS | low polyreactivity |
| QVQLQESGGGLVQAGASLRLSCAASGTIFLFRNMGWHRQAPGKERELVAGINGGTTTYYADSVIGRFTISRDNAKNTVYLQMNSLKPDDTAVYNCAAGASRLTYYDYWGLGTQVTVSS | low polyreactivity |
| QVQLQESGGGLVQAGGCLRLSCAASGSIFTYAVMGWYRQAHGKEHELVATIDTGSSTYYADSVKGRITISRDNAKNTLYLQMNSLIPEDTAVYYCAVNTYCRVRYRYWGQGTQVTVSS | high polyreactivity |
| QVQLQESGGGLVQAGGCLSCTASGTIFGQGDMGWSRQSPGKERELVATINDGASTYYADSVKGRFTISRDKAKNTVYLQKNSLKPDDTAVYYCAVLTDITTYFGYWGQGTQVTVSS | low polyreactivity |
| QVQLQESGGGLVQAGGCLSCTSSGTIFGQGDMGWYRQAPGKERELVATINDGASTYYADSVKGRFTISRDTAKNSVYLQKNSLKPDDTAVYYCAVFTDITTYFGYWGQGTQVTVSS | low polyreactivity |
| QVQLQESGGGLVQAGGDLRLSCAASGNIFRDYIMGWYRQAPGKEREFVAGIDRGANTNYADSVKGRFTISRDNAINTVYLQMKSLKPVDTAVYYCAVHTAFVPDFIYWGQGTQVTVSS | low polyreactivity |
| QVQLQESGGGLVQAGGGLRLSCAASGTISGPHVMGSSRQAPRKEREFLAAINVGANTYYADNVKGRFTISRDNAKNTVYLQMNSLKPEDTAVYYCAAVYYGDIGHEYWGQGTQVTVSC | low polyreactivity |
| QVQLQESGGGLVQAGGGLRLSCAASGTISGPHVMGWYRQAPGKEREFVAAINVGANTYYADNVKGRFTISRDNAKNTVYLQMNSLKPEDTAVYYRAAVYYGDIGHEYWGQGTQVTVSC | low polyreactivity |
| QVQLQESGGGLVQAGGILRLSCAACGNIFPSAVMGWYRQALGKEREFVATINSGSNTYYADSVKGRFTISRDNAKNTVYLQMNSLKLEDTAVYYCAAYFKLQAWHTYWGQGTQVTVSS | low polyreactivity |
| QVQLQESGGGLVQAGGILRLSCAASGPISRRSTMGWYRQAPGKERELVTAITRGTNTNYADSVKGRFTISRDNAKNTEYLQMNSLKPEDTAVYYCAAYGVLKPYRGDAVFHRYWGQGTQVTVSS | low polyreactivity |
| QVQLQESGGGLVQAGGNLRLSCAASGYISRWYGMGWYRQAPGKERELVAGMSPGGSTYYADSVKGRITISRDNAKNTVYLQMNSLKPEDTAVYYCAAQDFQDSIYFYWGQGTQVTVSS | high polyreactivity |
| QVQLQESGGGLVQAGGSLCMSCAASGSISDYIFMCWYRQAPGKVREFVAGIGIGGKTNYADSVKGRFTIRRDNEKYTVYLQMNSLKPEDTALYYCAANATYTDYYAYCGQGTQVTVSS | low polyreactivity |
| QVQLQESGGGLVQAGGSLGCEASGNISTRSEMGWYRQAPGKEREFVATINSGGITNYADSVKGRFTISRDNAKNTVYLRMNSLKPEDTAVYYRAVYGYFSDPYDYWGQGTQVTVSS | low polyreactivity |
| QVQLQESGGGLVQAGGSLRLGCAASGYISGFNEMGWYRQAPGKGRELDAAITYGGITNYADSVKGRFTISRDNAKNTVYLQMNSLKPEDTAMYYCAAGDFDQSNHAYWGQDTQVTVSS | high polyreactivity |
| QVQLQESGGGLVQAGGSLRLICAESGSISQTVYMGWYRQAPGKEREFVAAINAGASTYYADSVKGRFTISRDNAKNTVYLQMNSLKPEDTAVYYCAAEYYSAAYNRYWGQGTQVTVSS | low polyreactivity |
| QVQLQESGGGLVQAGGSLRLICSASGTNFTARFIGWYRQAPGKERELVATITDGGNTNHADSVKGRFTISRDNAKNTVFLQMNSLKPEDAAVYYCAAGEVDIDTLLYWGQGSQVTVSS | low polyreactivity |
| QVQLQESGGGLVQAGGSLRLSCAAIGYISYFVGMGWYRQQPGKEREFVASIADVSNTYYADSVKGRFTISRDNAKNTVYLQRNSLKPEDTAVYYCAVVDSWTYRFDYWGQGTQVTVSS | high polyreactivity |
| QVQLQESGGGLVQAGGSLRLSCAASCTISQEDWMGWYRQAPGKEREFVAAIGLGSNTNYADSLKGRFTISRDNAKNTVYLQMNSLKPEDTAVYYCAVTVWQYSDHVYRGQGTQVTVSS | low polyreactivity |
| QVQLQESGGGLVQAGGSLRLSCAASGAIFDGFNMGWYRQAPGKEGEFVAAISYGASTDYADSVKGRFTVSRDNAKNSVYLQMNSLKPEDTAVYYCAVYDELYHVLVYWGRGTQVTVSS | low polyreactivity |
| QVQLQESGGGLVQAGGSLRLSCAASGNISVTGFMGWYRQAPGKERELVASIGIGGTTYYADSVKGRFSISRDNAKNTVYLQMNSLKPEDTAVYYCAARYLYYAYSYWCQGTQVTVSS | low polyreactivity |

| Sequence | polyreactivity (PSR sort gate) |
| --- | --- |
| QVQLQESGGGLVQAGGSLRLSCAASGNISVTGFMGWYRQAPGKERELVASIGIGGTTYYADSVKGRFSISRDNGKNTVYLQLNSLKPEDSAVYYCAARYLYYAYSYWGQGTQVTVSS | low polyreactivity |
| QVQLQESGGGLVQAGGSLRLSCAASGNIYPTVSMGWYRQAPGKEREFVVTIDPGSNTYYADSAKGRFTISRDNAKNTVYLQMNSPKPEDTAVYYCAVVFADWATYGYWGQGTQVTVSS | high polyreactivity |
| QVQLQESGGGLVQAGGSLRLSCAASGNTSDTGYMGWYRQAPGKERKLVASIDYGSNTYYADSVKVRFTISRDNAKNTVYLQMNSLKPEDTAVYYCAAYYIGDYTLVYWGQGTQVTVSS | high polyreactivity |
| QVQLQESGGGLVQAGGSLRLSCAASGSIAHYIFMGWYRQAPGKEREFVAGIGYGGTTNYADSVKGRFTISRDNAKNTVYLQMNSLKPEDTAMYYCAAREATEFYLYYWGQGTQVTVSS | low polyreactivity |
| QVQLQESGGGLVQAGGSLRLSCAASGSIFEELDMGWYRQAPGKEREFVAAIGTGSTTYYADSVKGRFTISRDNAKNTVYLQMNSLKPEDTAVYYCAVDTWARAYLGYWGQGTQVTVSS | high polyreactivity |
| QVQLQESGGGLVQAGGSLRLSCAASGSIFVSVTMGWYRQAPGKERELVASIGRGSTTNHADSVKGRFTISRDNATNIFYLLMNSLNPEDTAVYYCAALESYGKYHGYWGQGTQVTVSS | low polyreactivity |
| QVQLQESGGGLVQAGGSLRLSCAASGSISGPHVMGWYRQAPGKEREFVAAINVGANTYYADNVKGRFTISRDNAKNTVYLQMNSLKPEDTAVYYCAAEYGIYETGHYGIYDYWGQGTQVTVSS | low polyreactivity |
| QVQLQESGGGLVQAGGSLRLSCAASGSISHYIFMGWYRQAPGKEREFVAGIGYGGTTNYADSVKGRFTISRDNAKNTVYLQMNSLKPEDTAMYYCAAREATEFYLYYWGQGTQVTVSS | low polyreactivity |
| QVQLQESGGGLVQAGGSLRLSCAASGSISILENMGWYRQPPGLGRDFVAGIGYGSSTYYADSVKGRFTISRDNAKNTVYQQMNSLKPEDTTVYYCAVVEYQCVTYLYWGQGSQVTVSS | low polyreactivity |
| QVQLQESGGGLVQAGGSLRLSCAASGSISNLIAKGWYRQAQGKEREFVAAIGPGANTNYADSVKGRFTISRDNANNTVSLQMNSLKPDDTAVFYCAVDYYGVAVYHYWGQGTQVTVSS | high polyreactivity |
| QVQLQESGGGLVQAGGSLRLSCAASGSIYDDTYMGWSRQAPGKERELVATIDSGSTTNYADSVKGRITISRDNAKNTVYLQMNSLKPEDTAVYYCAAADSHIDYFDYWGQGTQVTVSS | low polyreactivity |
| QVQLQESGGGLVQAGGSLRLSCAASGTIFCLWAMGWYCQAPGKERELVASISSGGTTYHADSVKGRFTISRDNAKNTVYLQMNSLKPEDTAVYYSAAFYVATAKLGYWGQGSQVTVSS | low polyreactivity |
| QVQLQESGGGLVQAGGSLRLSCAASGTIFDKDDMGWYRQAPGKEREFVAGIDRGGTTNCAGSVKGRFTISRDNAKNTVYLQMISLKPEDTEVYYCAAYYPDIYPFIYRGQGTQVTVSS | high polyreactivity |
| QVQLQESGGGLVQAGGSLRLSCAASGTIFRISDMGSYRQAPGKEREFVAAITYGANTYYADSGKGRFTISRDNAKNTVYLQMNSLIPEDTAVYYCAVPPVKETILDYWGQGTQVTVSC | low polyreactivity |
| QVQLQESGGGLVQAGGSLRLSCAASGTILYSLGMGWYRQAPGKRREFVASITWGTTTNYAESVKGRFTISRDNAKNTVYPQMNSLKPDVTAVYDCAAPPFGDSSYHYWGQGTQVTVSS | low polyreactivity |
| QVQLQESGGGLVQAGGSLRLSCAASGTISPLPAMAWYRQAPGKEREFVAGIDTGAITNYADSVKGRFTISRANAKNTVYLQMNSLIPEDTAVYYCAVFPAAYDYYERYYTYWGQGTQVTVSS | low polyreactivity |
| QVQLQESGGGLVQAGGSLRLSCAASGTISPLPAMGWYRQAPGKEREFVAGIDTGAITNYADSVKGRFTISRDNAKNTVYLQMNSLIPEDTAVYYCAVFPAAYDYYERYYTYWGQGTQVTVSS | low polyreactivity |
| QVQLQESGGGLVQAGGSLRLSCAASGTISSSDAMGWYRQAPGKEREFVATIASGTTTYYADSVKGSFTISRDNAENSVYLQTNSLKPEDTAVYYCAAPTIQIYPFYYWGQGTQVTVSS | high polyreactivity |
| QVQLQESGGGLVQAGGSLRLSCAASGTISVHASMGWYRQAPGKERELVAGITDGANTYYADSVKGRFTISRDNSKNTVYLQMNSLKPEVTAVYYCAAYYGTEVHFTYWGLGTQVTVSS | low polyreactivity |
| QVQLQESGGGLVQAGGSLRLSCAASGTIYWLWAMGWYCLAPGKERELVASISSGGTTYHADSVKGRFTISRDNAKYSVYLQMNSLKPEDTAVFYSAAFYVASAKLGYWGQGSQVTVSS | low polyreactivity |
